± gives the uncertainty stated by the source.
B1: Lysine-specific demethylase 2B, residues 656 to 722; numbered along this chain, Q8NHM5 (parent)
chain: LPHTAVCLVCGEAGKEDTVEEEEGKFNLMLMECSICNEIIHPGCLKIKESEGVVNDELPNCWECPKC

Variants of: B1
Test: abundance fitness (aPCA) (normalised: wild type 0, dead -1); higher = more abundant; growth selection in yeast, the domain comes from the species named
Conditions: Homo sapiens

Abundance fitness: each site, then its substitutions
F26: A -0.204 ± 0.084 | N 0.053 ± 0.13 | E -0.176 ± 0.1 | S -0.343 ± 0.12 | Q -0.37 ± 0.14 | G -0.278 ± 0.067 | T -0.155 ± 0.14 | H -0.343 ± 0.2 | K -0.257 ± 0.14 | D -0.4 ± 0.21 | P -0.165 ± 0.14 | Y -0.234 ± 0.15 | V -0.164 ± 0.072 | L -0.297 ± 0.097 | I 0.028 ± 0.13 | R -0.018 ± 0.097 | M 0.062 ± 0.1
E32: Q -0.17 ± 0.15 | W -0.247 ± 0.09 | T 0.02 ± 0.12 | I -0.072 ± 0.19 | F -0.205 ± 0.12 | S 0.044 ± 0.088 | M 0.142 ± 0.1 | K 0.156 ± 0.11 | Y -0.668 ± 0.22 | C 0.088 ± 0.099 | V -0.287 ± 0.098 | G -0.063 ± 0.077 | D -0.324 ± 0.15 | H 0.103 ± 0.12 | L 0.005 ± 0.065 | R 0.201 ± 0.06 | P -0.53 ± 0.22 | A -0.222 ± 0.092
N27: P -0.038 ± 0.1 | E -0.044 ± 0.12 | C -0.706 ± 0.36 | G -0.113 ± 0.058 | K 0.064 ± 0.083 | D -0.058 ± 0.27 | R -0.036 ± 0.064 | S -0.085 ± 0.076 | I -0.275 ± 0.44 | F -0.22 ± 0.19 | A 0.091 ± 0.078 | Y -0.179 ± 0.19 | L -0.137 ± 0.077 | T -0.169 ± 0.12 | V -0.472 ± 0.12 | Q -0.206 ± 0.13 | M 0.077 ± 0.13
L30: N -0.152 ± 0.16 | K -0.034 ± 0.23 | G -0.209 ± 0.089 | R -0.196 ± 0.062 | C -0.232 ± 0.12 | T -0.212 ± 0.098 | W -0.309 ± 0.093 | M -0.373 ± 0.14 | H -0.603 ± 0.24 | S -0.452 ± 0.078 | Q -0.337 ± 0.23 | A -0.35 ± 0.12 | F -0.778 ± 0.27 | P -0.435 ± 0.14
M29: D -0.552 ± 0.26 | R 0.278 ± 0.079 | S 0.039 ± 0.077 | A -0.297 ± 0.14 | W -0.522 ± 0.17 | C -0.026 ± 0.14 | G -0.247 ± 0.082 | Q -0.15 ± 0.24 | E -0.362 ± 0.12 | P -0.267 ± 0.12 | I -0.652 ± 0.36 | L -0.274 ± 0.1 | H -0.31 ± 0.27 | V -0.318 ± 0.093
S34: Q 0.027 ± 0.12 | H -0.03 ± 0.23 | V -0.078 ± 0.096 | L -0.36 ± 0.14 | P -0.456 ± 0.16 | T 0.082 ± 0.2 | R -0.229 ± 0.092 | K -0.021 ± 0.11 | A -0.273 ± 0.13 | I -0.058 ± 0.1 | E -0.469 ± 0.21 | C -0.053 ± 0.18 | D -0.153 ± 0.18 | G -0.106 ± 0.082
C33: K -0.6 ± 0.17 | V -1.24 ± 0.22 | A -0.912 ± 0.2 | Q -0.581 ± 0.21 | S -0.716 ± 0.22 | E -0.619 ± 0.14 | R -0.593 ± 0.12 | D -0.852 ± 0.24 | Y -0.621 ± 0.44 | W -1.02 ± 0.27 | L -0.765 ± 0.15 | T -0.753 ± 0.19 | M -0.642 ± 0.14 | G -0.629 ± 0.1 | N -0.481 ± 0.29 | P -0.729 ± 0.19
L28: C -0.16 ± 0.18 | P -0.162 ± 0.16 | Y -0.169 ± 0.49 | F 0.081 ± 0.1 | M 0.364 ± 0.098 | S 0.068 ± 0.087 | G -0.076 ± 0.068 | N 0.476 ± 0.18 | H 0.118 ± 0.12 | D -0.068 ± 0.17 | K 0.152 ± 0.14 | T 0.241 ± 0.11 | W 0.039 ± 0.073 | A 0.124 ± 0.08 | R -0.148 ± 0.072
M31: A -0.18 ± 0.093 | Q -0.662 ± 0.28 | R -0.141 ± 0.085 | P -0.847 ± 0.15 | K -0.093 ± 0.098 | C -0.219 ± 0.22 | L -0.053 ± 0.1 | I -0.238 ± 0.11 | T -0.405 ± 0.16 | Y -0.317 ± 0.18 | G -0.485 ± 0.16 | V -0.276 ± 0.12 | H -0.25 ± 0.12 | F -0.272 ± 0.16 | W -0.229 ± 0.089 | S -0.446 ± 0.14
G24: M 0.375 ± 0.1 | W -0.526 ± 0.082 | R -0.121 ± 0.068 | V -0.021 ± 0.071 | Y 0.154 ± 0.15 | P -0.481 ± 0.28 | S 0.15 ± 0.082 | T 0.019 ± 0.099 | Q -0.123 ± 0.1 | N 0.123 ± 0.094
K25: S -0.348 ± 0.14 | C -0.329 ± 0.21 | W -0.859 ± 0.31 | Y -0.677 ± 0.2 | N -0.118 ± 0.18 | G -0.33 ± 0.099 | L -0.441 ± 0.083 | T -0.432 ± 0.17 | A -0.242 ± 0.11 | I -0.453 ± 0.11 | V -0.525 ± 0.1 | F -0.602 ± 0.14 | M -0.238 ± 0.087 | P -0.787 ± 0.2 | H -0.31 ± 0.17 | R -0.324 ± 0.088
